Experimental data: the supplement of paper PMC9170038

Tested on: MS2 coat protein
Experiment: apparent KD of MS2 coat protein; designed switch direction (-1 OFF switch, 1 ON switch): -1; higher = weaker reporter binding
Outline: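 Apparent KD, taken as the median over clusters for each design, was obtained by curve-fitting normalised cluster fluorescence. Designed RNA switches had been transcribed on Illumina chips by stalled E. coli RNA polymerase and titrated with SNAP-549-labelled MS2 coat protein, doubling from 0.7 or 1.5 nM to 3 µM.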

[1] = Eterna round: R95, input ligand: FMN 200 uM
[2] = Eterna round: R95, input ligand: microRNA oligo, concentration not stated
[3] = Eterna round: R95, input ligand: none
[4] = input ligand: microRNA oligo, concentration not stated

Sequence | apparent KD of MS2 coat protein [1] | apparent KD of MS2 coat protein [2] | apparent KD of MS2 coat protein [3] | apparent KD of MS2 coat protein (input ligand: FMN 200 uM) | apparent KD of MS2 coat protein (input ligand: none) | apparent KD of MS2 coat protein [4]
AGUACUAACACGAAAGUGUUAGUACAAUAAGCUUGUGAAACAUGAGGAUCACCCAUGUCCUCAUAAGCUCGUCUUGU [salish99_TOv2_r3_009] (puzzle: Sensor v3, turn-off variant 2) | 15.2 nM | 353 nM | 13.7 nM |  |  | 
UUUAAUUUUUUUUUUUUACAAGCUUUUUGCUCGUCUUAUACAUGAGGAUCACCCAUGUGGAUGGAGGGUAAAUUAUC [JMF 85] (puzzle: Sensor v3, turn-off variant 2) | 14.4 nM | 25.6 nM | 16.9 nM |  |  | 
GUGGUACAUGAGGAUCACCCAUGUUAGGAUAUCGCGUGAGGUUUUGCUUCCGCGCGCGCGAGAAGGGACGUCUU (puzzle: Exclusion 1) |  | 23.2 nM |  |  |  | 
UGCAUGUCAGGAUAUCGUGCAUACAACGAAAGUUCUAUGUGCGAGAAGGGACAUGAGGAUCACCCAUGUCUUAG [Omei Ex4 A18] (Eterna round: R97, puzzle: Exclusion 4) |  |  |  | 67.1 nM | 22.6 nM | 
UGCAGACGAGGAUAUAAACGAUAUAACAUGAGGAUCACCCAUGUACGAUCGAAUGAUCGUUUAGAAGGCGUCUGCA [E5/10-A1] (Eterna round: R97, puzzle: Exclusion 5) |  |  |  | 16.6 nM | 15.7 nM | 
AAGAAGAAGUAAGGAUAUGAAGAUCUGGUGGUGACAUGAGGAUCACCCAUGUGAAAACAAUAAGAUCAGAAGGUAUAAGAAGAA [AK ExNG2-3.1] (Eterna round: R96, puzzle: Exclusion NG 2) |  |  |  | 81 nM | 87.9 nM | 70.4 nM
UAACUUCUUGUAAGGAUAUUGGCGCGAAAGCGAACCGAGAAGGUACAUGAGGAUCACCCAUGUGAAAUAAGAAU [Mod of Zala 14 - Jieux - Brourd's Mod of Exclusion 4] (Eterna round: R97, puzzle: Brourd's mod of Exclusion 4) |  |  |  | 574 nM | 40.3 nM | 
UUCCUCUUAACAUGAGGAUCACCCAUGUAUUAUUUGGUAAUUGAGGAUAUAUUUUUAAUGUUUAUAUAGAAGGCAAAUACAGUU [JR_ExcNG3_Sub094] (Eterna round: R96, puzzle: Exclusion NG 3) |  |  |  |  |  | 36.1 nM
UGCAGUGAUCCAGAAUGUUACAUGAGGAUCACCCAUGUUAGUAUUGUUUAGUUGUAUAAGUUUGUUGUUCGUUUUAU [JR_STOV1_v2_Sub079] (Eterna round: R97, puzzle: Sensor, turn-off variant 1) |  |  |  | 68.8 nM | 202 nM | 
CCUUGUGUUGAGGAUAUGCGCCGGCUCGCUGGCGCAGAAGGCGGCACAUGAGGAUCACCCAUGUCAGUUCGCGU [salish99_ex6_r004_014] (Eterna round: R97, puzzle: Exclusion 6) |  |  |  | 431 nM | 29.8 nM | 
CUGAUGUGAGGAUAUCGGGCUACGGCCAGGCCGCUAGCAUUCGAGAAGGCACAUGAGGAUCACCCAUGUGAGAA [Laquzara] (Eterna round: R96, puzzle: Exclusion 4) |  |  |  | 230 nM | 153 nM | 112 nM
UACAUGAGGAUCACCCAUGUUUUGUCGUGUAUGGUAUUUAUCUAGGAUAUCAAGUUGUUUAUUUAUGAGAAGGAGAAUAUUAAU [JMF's solution 27] (Eterna round: R96, puzzle: Exclusion NG 3) |  |  |  |  |  | 28.8 nM
AGAUGUAGAUACCGAUCCUACAUGAGGAUCACCCAUGUAGCUAGACGUGCACGCGUAGCUCGUCAGACUACCAGUAG [salish99_TOv1_r3_086] (puzzle: Sensor v3, turn-off variant 1) | 372 nM | 336 nM | 363 nM |  |  | 
GGUACUAACACGAGAGUGUUAGUACUAUAAGCUUGUGUUACAUGAGGAUCACCCAUGUCCUCAUAGGCUCGUCUUAU [Mat - Sensor v3 - Turn-off var 2 - D80] (puzzle: Sensor v3, turn-off variant 2) | 209 nM | 25.8 nM | 231 nM |  |  | 
AUCAGCUCGUCAGGAUAUACAUGAGGAUCACCCAUGUGAUCAAUAGCAGCUUCGGCUGCAUUAAUGUAGAAGGGACGAGCUGAU [ENG2/5-B3] (Eterna round: R96, puzzle: Exclusion NG 2) |  |  |  | 175 nM | 407 nM | 75 nM
CUGAGUCUAGGAUAUACAUGAGGAUCACCCAUGUAAAGUAGCUUGCGUACAGGCAGAUGUAGAAGGAGAUUCGG [Mod of JL 10 - Jieux - Exclusion 3] (Eterna round: R97, puzzle: Exclusion 3) |  |  |  | 33.2 nM | 24.6 nM | 
